From patent publication EP2295560A1, “Directed evolution of arginine deiminase for increased activity at physiological pH” (priority 2009, dated 2011)

Tested on: N=C(N)NCCC[C@H](N)C(=O)O
Test: Determination of kcat and Km (citrulline colorimetric assay, purified enzyme)
Format: biochemical, Pseudomonas plecoglossicida CGMCC2039
Details: 0.5 M phosphate buffer, 0.2 mM to 10 mM of arginine
Description: The kcat and Km values were determined from initial velocity data measured as a function of substrate concentration. Enzyme reaction was carried out at 37°C in a water bath. After 10 min preincubation at 37"C, the enzyme reaction was initiated by addition of purified enzyme (50 µl, 0.2-0.5 µM) to the substrate solution (200 µl, 0.2 mM to 10 mM of arginine, 0.5 M phosphate buffer, pH 7.4) in deep well plates. The reaction mixture was incubated (37°C) and every two minutes reaction mixture (30 µl) of each well was transferred to acid-ferric solution (30 µl) to stop the enzyme reaction. The color development was subsequently performed in 96-well PCR plate. Ferric-acid solution (90 µl) and DAM-TSC solution (15 µl) were added to each well. The 96-well PCR plate was then incubated (70°C, 30 min) in thermal cycler (Eppendorf Mastercyler gradient) for color development, followed by incubation in ice water to stop color development. Absorbance was measured at 530 nm using a microtiter plate reader (SPECTROstar Omega, BMG LABTECH, Offenburg, Germany). The initial velocity data obtained were fitted to the equation v = Vmax[S]/([S] + Km) (where v is the initial velocity, Vmax the maximum velocity, [S] the substrate concentration, and Km the Michaelis constant) using GraphPad Prism software (GraphPad software, San Diego, CA, USA). The kcat was calculated from the ratio of Vmax, and enzyme concentration.
For kinetic characterization of ADI variants the citrulline production was maintained between 0.2-0.8 mM. […] Figure 4 summarizes the kcat and Km values of wild type PpADI, identified variants M1 […] and M2 (K5T D44E H404R) which were expressed in shaking flasks cultures and purified using a two step procedure (anion exchange follows by gel filtration). Both variants M1 and M2 show an increase in kcat and Km for citrulline production at pH 7.4.

Q: With “Pseudomonas plecoglossicida arginine deiminase (PpADI) variant M1 (H404R) (Pseudomonas plecoglossicida; H404R)” as the substance, how does the Km (other: M1, pH 7.4, 37°C) read?
A: Its Km is 1200 µM.

Q: For “Pseudomonas plecoglossicida arginine deiminase (PpADI) variant M2 (K5T D44E H404R) (Pseudomonas plecoglossicida; D44E/H404R/K5T)”, which Km (other: M2, pH 7.4, 37°C) is on record?
A: The Km was 2500 µM.

Q: How did the Km (other: wild type PpADI, pH 7.4, 37°C) turn out when “Pseudomonas plecoglossicida arginine deiminase (PpADI), wild type, SEQ ID No. 1 (Pseudomonas plecoglossicida)” was run?
A: Its Km is 700 µM.
